B1: mRNA-splicing (parent)
chain: AGUUGCUGCUGGGAGCUCCAGCACAGUGAAAUGGACAGAAGGGCAGAGCAA

Variants of: B1
Experiment: exon inclusion enrichment index; higher = more inclusion; WT1 exon 5 minigene, HEK293

| Variant | exon inclusion enrichment index |
| --- | --- |
| AGUUAUAUAUGGGAGCUUCAGCACAGUGAAAUGGACAGAAGGGCAGAGCAA | 0.0307 |
| AGUUCGCGCCGGGAGCUCCAGCACAGUGAAAUGGACAGAAGGGUUGAGCAA | 2.84 |
| AGUUUCUUUUGGGAGCUCCAGCACAGUGAAAUGGACAUAAGGGCAGAGCAA | 0.0205 |
| AGUUACCACCGGGAGCUCCACCACAGUGAAAUGGACAGAAGGGCAGAGCAA | 2.25 |
| AGUUAGGGAUGGGAGCUCCAGCACAGUGAAAGUGACAGAAGGGCAGAGCAA | 0.000945 |
| AGUUGCUGCUGGGAGGACCAGCACAGUGAAAUGGACAGAAGGGCAGAGCAA | 0.231 |
| AGUUACCACCGGGAGCUCCAGCACAGUGAAAUGGACAGAAGAGCAGAGCAA | 3.71 |
| AGUUGCUGCUGGGAGCUCCAGCACAGUGAAAUGGACAGAAUAGCAGAGCAA | 0.0358 |
| AGUUCACACAGGCGGCUCCAGCACAGUGAAAUGGACAGAAGGGCAGAGCAA | 0.278 |
| AGUAAUAUAUGGGAGCUCCAGCACAGUGAAAUGGACAGAAGGGCAGAGCAA | 0.0542 |
| AGUUCUUCUCGGGAGCUCCAGCACAGUGAAAUCCACAGAAGGGCAGAGCAA | 1.12 |
| AGUUACCACCGGGAGCUCCAGCACAGUGAAAUGGACAGAAGGGUAGAGCAA | 0.581 |
| AGUGUCCACCGGGAGCUCCAGCACAGUGAAAUGGACAGAAGGGCAGAGCAA | 2.16 |
| AGUUGCUGCUGGGAGCUCCAGCACAGUGAGGUGGACAGAAGGGCAGAGCAA | 0.0117 |
| AGUUCGCGCCGGGAGCUCCAGCAUGGUGAAAUGGACAGAAGGGCAGAGCAA | 4.57 |
| AGUUACCACCGGGAGCUCCAGCACAGUGAAAUGGGAAGAAGGGCAGAGCAA | 1.29 |
| AGUUGCUGCUGGGAGCUCCAGCACAGUGAAAUGGCAAGAAGGGCAGAGCAA | 0.0616 |
| AGUUCGCGCCGGGAGCUCGCGCACAGUGAAAUGGACAGAAGGGCAGAGCAA | 2.89 |
| AGUUAUAUUAGGGAGCUCCAGCACAGUGAAAUGGACAGAAGGGCAGAGCAA | 0.00135 |
| AGUUACCACCGGGAGCUCGCGCACAGUGAAAUGGACAGAAGGGCAGAGCAA | 2.4 |
| AGUUAUAUAUGGGACGUCCAGCACAGUGAAAUGGACAGAAGGGCAGAGCAA | 0.0723 |
| AGUUGCUGCUGGGAGCUCCAGCACAGUGAAACGGACAGAAGGGCAGAGCAA | 0.336 |
| AGUUCGUUCCGGGAGCUCCAGCACAGUGAAAUGGACAGAAGGGCAGAGCAA | 2.67 |
| AGUUCGCGCCGGGAGCUCCAGCGGAGUGAAAUGGACAGAAGGGCAGAGCAA | 4.88 |
| AGUUUCUUUUGGGAGCUCCUUCACAGUGAAAUGGACAGAAGGGCAGAGCAA | 0.0618 |
| AGUUUCUUUUGGGAGCUCCUACACAGUGAAAUGGACAGAAGGGCAGAGCAA | 0.0475 |

| Variant | exon inclusion enrichment index |
| --- | --- |
| AGUUGCUGCCUGGAGCUCCAGCACAGUGAAAUGGACAGAAGGGCAGAGCAA | 2.21 |
| AGUUACCACCGGGAGCUCCAGCACAGUGAAAUGGAGAGAAGGGCAGAGCAA | 1.55 |
| AGUUUCUUUUGGGAGCUCCAGCACAGUGAAAUGGACGCAAGGGCAGAGCAA | 0.241 |
| AGUUGCUGCUGGGAGCUCCAGCACAGUGAAAUGGACAGAAGUUCAGAGCAA | 0.54 |
| AGUUAGCACAGGGAGCUCCAGCACAGUGAAAUGGACAGAAGGGCAGAGCAA | 0.00406 |
| AGUUAUAUAUGGGAGCUCCAGCACAGUGAACCGGACAGAAGGGCAGAGCAA | 0.363 |
| AGUUUCUUUUGGGAGCUCCAGCACAGUGAAAUGGACAGUUGGGCAGAGCAA | 0.0352 |
| AGUUAGGGAUAAGAGCUCCAGCACAGUGAAAUGGACAGAAGGGCAGAGCAA | 0.00145 |
| AGUUCGCGCCGGGAGCUCCAGCACAGUGACUUGGACAGAAGGGCAGAGCAA | 3.41 |
| AGUUGCUGCUGGGUGCUCCAGCACAGUGAAAUGGACAGAAGGGCAGAGCAA | 0.0353 |
| AGUUCACACAGGGAGCUCCAGCACAGUACAAUGGACAGAAGGGCAGAGCAA | 0.0469 |
| AGUUACCACCGGGAGCUCCAGCACAGUGAAAUGGUGAGAAGGGCAGAGCAA | 0.19 |
| AGUUACCACCGGGAGCUCCAGCACACCGAAAUGGACAGAAGGGCAGAGCAA | 3.74 |
| AGUUCGCGCCGGGAGCUCCAGCACAGUGAAAUGGACAGAUGGGCAGAGCAA | 2.71 |
| AGUUAGGGAUGGGAGCUCCAGCACAGUGAAAUGGACAGAACAGCAGAGCAA | 0.00376 |
| AGUUGAAGAAGGGAGCUCCAGCACAGUGAAAUGGAUGGAAGGGCAGAGCAA | 0.602 |
| AGUUUCUUUUGGGAGCUCCAGCACAGUGAAAUGGACAACAGGGCAGAGCAA | 0.0724 |
| AGUUCGCGCCGGGAGCUCCAGCACAGUGAAAUGGACAGCCGGGCAGAGCAA | 3.63 |
| AGUUGAAGAAGGGAGCUCCAGGCCAGUGAAAUGGACAGAAGGGCAGAGCAA | 0.321 |
| AGUUCACACAGGGAGCUCCAGCACAGUCUAAUGGACAGAAGGGCAGAGCAA | 0.0485 |
| AGCUGACGACGGGAGCUCCAGCACAGUGAAAUGGACAGAAGGGCAGAGCAA | 3.44 |
| AGACCGCGCCGGGAGCUCCAGCACAGUGAAAUGGACAGAAGGGCAGAGCAA | 3.45 |
| AGUUGCUGCUGGGAUGUCCAGCACAGUGAAAUGGACAGAAGGGCAGAGCAA | 0.0648 |
| AGUUCACACGCGGAGCUCCAGCACAGUGAAAUGGACAGAAGGGCAGAGCAA | 2 |
| AGUUACCACCGGGAGCUCCAGCACAGCAAAAUGGACAGAAGGGCAGAGCAA | 2.31 |

Source: the RNAGym collection of RNA variant scans (doi:10.1101/gr.219683.116)
